The values below come from patent US11467166B2, “Compositions and methods for detecting molecule-molecule interactions” (ShanghaiTech University, priority 2017, dated 2022).

For one assay, the target named is T1, His-MATH (Homo sapiens, UniProt O43791).
T1 construct: made in house; host or cells: E. coli BL21(DE3)
The assay can be described thus: Peptide competition assay in the in vitro Pup modification of MATH by PUP-IT^pep1. The class given is biochemical. The note with it: free peptide added at 1-512 μM; 0.2 μM His-MATH, 8 μM Pup(E); anti-His immunoblot. As to the method:
Pup modification were assayed at 37° C. for 30 min with purified recombinant proteins in a 20 μl reaction volume with 20 mM Tris 8.0, 100 mM NaCl, 10 mM ATP, and 15 mM MgCl2. The reaction also contains purified 1 μM PUP-IT, 10 μM Pup(E) or 10 mM bio-DE28. All the reactions were stopped by direct addition of 6×SDS loading buffer and analyzed on 4-20% SDS-PAGE gels (Genescript, cat. #M42015C).
Peptide competition assay (as in FIG. 2d) was performed in the presence of different peptides. Free pep1 (sequence […], SEQ ID NO: 12) and control peptide (sequence […], SEQ ID NO: 15) were synthesized and purified to >98% pure, confirmed by mass spectrometry. The peptides were dissolved in water and pH adjusted with Tris buffer to 7, stored as 2 mM stock in −80° C. The reactions were set up with 1 μM pup^SBC1, 0.2 μM His-MATH, and 8 μM Pup(E). Different amount of free pep1 or control peptide was added to each reaction to make the final peptide concentration at 1, 2, 4, 8, 16, 32, 64, 128, 256, and 512 μM. All the reactions were stopped by direct addition of 6×SDS loading buffer and analyzed on 4-20% SDS-PAGE gels, followed by immune-blotting with anti-His antibody to identify both unmodified and modified MATH. The density of modified MATH was quantified with ImageJ and then plotted with GraphPad Prism 6.

Assay [1] concerns the target MATH domain from human SPOP (Homo sapiens, UniProt O43791). The note with it: peptide binding to MATH domain from human SPOP; known values; read-out: dissociation constant (Kd); cited from earlier work.
The next assay addresses CD86/CD80. The note with it: CD28 interaction with CD86/CD80; reported; cited from earlier work.

The term Kd denotes a measure of binding affinity in units of concentration.

Sequence of MATH domain from human SPOP (O43791 31-161 limits assumed): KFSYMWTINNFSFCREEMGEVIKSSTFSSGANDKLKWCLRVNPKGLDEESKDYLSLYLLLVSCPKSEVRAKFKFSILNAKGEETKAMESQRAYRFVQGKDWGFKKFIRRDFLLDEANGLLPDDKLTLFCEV
T1 sequence (O43791 31-161 limits assumed): as above

As for “SPOP substrate-derived MATH-binding peptide LACDEVTSTTSSSTA (SEQ ID NO: 12) [pep1]”, the “inhibition of MATH modification” value with His-MATH was “dose-dependent inhibition of MATH modification”. In assay [1], the Kd was 3.7 µM.

Regarding “CD28: co-stimulating receptor normally expressed on the surface of T cells”, the Kd on CD86/CD80 was 4 µM.

On to “SPOP substrate-derived MATH-binding peptide TLFPDVSSSTHPYHG (SEQ ID NO: 13) [pep2]”, for which the Kd in assay [1] is 76 µM.

For “SPOP substrate-derived MATH-binding peptide SELDSPSSTSSSSGI (SEQ ID NO: 14), the weakest binder [pep3]”, the equilibrium dissociation constant (Kd) in assay [1] was over 250 µM.

In the case of “pep1(mut): mutated pep1 peptide LACDEDTAAASSSTA (SEQ ID NO: 15), known to have defect on MATH binding”, in the assay with His-MATH, the “inhibition of MATH modification” value was “could not be fully inhibited”.
